For assay [1], the target named is T1, P501S peptide on HLA-B*51:01:01 (human).
T1 peptide: SACDVSVRV
As to the kind of experiment: stated without data.

Assay [2] has as its target T2, P501S peptide on HLA-B*51:01:01 (human).
T2 peptide: ASACDVSVRV
The experiment in a line: cytokine release.

The results in this text go back to EP1988097A1 (dated 2008).

B1: TCR of the P501S-specific T cell clone 4E5 (TCR, V domains shown)
Valpha: AQKITQTQPGMFVQEKEAVTLDCTYDTSDQSYGLFWYKQPSSGEMIFLIYQGSYDEQNATEGRYSLNFQKARKSANLVISASQLGDSAMYFCAMREGAGGGNKLTFGTGTQLKVEL
Vbeta: ETGVTQTPRHLVMGMTNKKSLKCEQHLGHNAMYWYKQSAKKPLELMFVYSLEERVENNSVPSRFSPECPNSSHLFLHLHTLQPEDSALYLCASSQDRTSSSYEQYFGPGTRLTVT
As for B1, the binding result in assay [1] and in assay [2] was “recognises” throughout.
